B1: CPEB3 Ribozyme (parent)
chain: GGGGGCCACAGCAGAAGCGUUCACGUCGCGGCCCCUGUCAGAUUCUGGUGAAUCUGCGAAUUCUGCUGU

Variants of: B1
Assay: self-cleavage, relative activity (ratio to wild type); higher = more cleavage; co-transcriptional

Variant | self-cleavage
GGGGGCCACAGCAGAAGCGUUCACGUAGCGGCCCCUGUCAGAUUCUGGAGAAUCUGCGAAUUCUGCUGU | 0.763
GGGGGCCACAGCAGAAGCGUUCACGUGGCGGCCCCUGUCAGAUUCUGGUGAAUCUACGAAUUCUGCUGU | 0.178
GGGGGCCACAGCAGAAGCGUUCACGUGGCGGCCCCUGUCAGAUUCUGGUGAAUCUUCGAAUUCUGCUGU | 0.156
GGGGGCCACAGCAGAAGCGUUCACGUUGCGGCCGCUGUCAGAUUCUGGUGAAUCUGCGAAUUCUGCUGU | 0.24
GGGGGCCACAGCAGAAGCGUUCACGUGGCGGCCCCUGUCAGAUUCUGGUGAAUCUGCGAAUUCUGGUGU | 0.119
GGGGGCCACAGCAGAAGCGUUCACGUGGCGGCCCCUGUCAGAUUCUGGUGCAUCUGCGAAUUCUGCUGU | 0.187
GGGGGCCACAGCAGAAGCGUUCACGUGGCGGCACCUGUCAGAUUCUGGUGAAUCUGCGAAUUCUGCUGU | 0.29
GGGGGCCACAGCAGAAGCGUUCACGUGGCGGCUCCUGUCAGAUUCUGGUGAAUCUGCGAAUUCUGCUGU | 0.188
GGGGGCCACAGCAGAAGCGUUCACGUUGCGGCCCCUGUCAGAUUCUGGUGAAUCUUCGAAUUCUGCUGU | 0.197
GGGGGCCACAGCAGAAGCGUUCACGUGGAGGCCCCUGUCAGAUUCUGGUGAAUCUGCGAAUUCUGCUGU | 0.186
GGGGGCCACAGCAGAAGCGUUCACGUGGUGGCCCCUGUCAGAUUCUGGUGAAUCUGCGAAUUCUGCUGU | 0.121
GGGGGCCACAGCAGAAGCGUUCACGUAGCGGCCCCUGUCAGAUUCUGGUGAAGCUGCGAAUUCUGCUGU | 0.338
GGGGGCCACAGCAGAAGCGUUCACGUGGCGGCCCCUGUCAGAUUCUGGUGAAUCUGCGAAUUCUCCUGU | 0.234
GGGGGCCACAGCAGAAGCGUUCACGUGGCGGCCCCUGUCAGAUUCUGGUGAAUCUGCGAAUUCUUCUGU | 0.164
GGGGGCCACAGCAGAAGCGUUCACGUUGCGGCCCCUGUCAGAUUCUGGUGAAUCUGCGAUUUCUGCUGU | 0.205
GGGGGCCACAGCAGAAGCGUUCACGUGGCGGCCCCUGUCAGAUCCUGGUGAAUCUGCGAAUUCUGCUGU | 0.145
GGGGGCCACAGCAGAAGCGUUCACGUGGCGGCCCCUGUCAGAUACUGGUGAAUCUGCGAAUUCUGCUGU | 0.212
GGGGGCCACAGCAGAAGCGUUCACGUGGCGGCCCCUGUCAGAUUCUGGUGAAUCUGCGAAUUCUGCUAU | 0.228
GGGGGCCACAGCAGAAGCGUUCACGUGGCGGCCCCUGUCACAUUCUGGUGAAUCUGCGAAUUCUGCUGU | 0.176
GGGGGCCACAGCAGAAGCGUUCACGUGGCGGCCCCUGUCAGAUUCUGGUGAAUCUGCGAAUUCCGCUGU | 0.254

Variant | self-cleavage
GGGGGCCACAGCAGAAGCGUUCACGUGGCGGCCACUGUCAGAUUCUGGUGAAUCUGCGAAUUCUGCUGU | 0.207
GGGGGCCACAGCAGAAGCGUUCACGUAGCGGCCCCUGUCAGAUUCUGGUGAAUCUGCGAAAUCUGCUGU | 0.28
GGGGGCCACAGCAGAAGCGUUCACGUUGCGGCCCCUGUCAGAUUCUGAUGAAUCUGCGAAUUCUGCUGU | 0.431
GGGGGCCACAGCAGAAGCGUUCACGUUGCGGCCCCUGUCAGAUUCUGUUGAAUCUGCGAAUUCUGCUGU | 0.504
GGGGGCCACAGCAGAAGCGUUCACGUGGCGUCCCCUGUCAGAUUCUGGUGAAUCUGCGAAUUCUGCUGU | 0.2
GGGGGCCACAGCAGAAGCGUUCACGUGGCGGCCCCUGUCUGAUUCUGGUGAAUCUGCGAAUUCUGCUGU | 0.17
GGGGGCCACAGCAGAAGCGUUCACGUGGCGGCCCCUGUCGGAUUCUGGUGAAUCUGCGAAUUCUGCUGU | 0.243
GGGGGCCACAGCAGAAGCGUUCACGUGGCGGCCCCUGUCAGAUUCUGGUGAAUCCGCGAAUUCUGCUGU | 0.137
GGGGGCCACAGCAGAAGCGUUCACGUUGCGGCCCCUGUCAGAUUAUGGUGAAUCUGCGAAUUCUGCUGU | 0.216
GGGGGCCACAGCAGAAGCGUUCACGUUGCGGCCCCUGUCAGAUUUUGGUGAAUCUGCGAAUUCUGCUGU | 0.35
GGGGGCCACAGCAGAAGCGUUCACGUUGCGGCCCCUGUCAGAUUCUGGUGAAUCUGCGAAUUAUGCUGU | 0.165
GGGGGCCACAGCAGAAGCGUUCACGUUGCGGCCCCUGUCAGAUUCUGGUGAAUCUGCGAAUUGUGCUGU | 0.263
GGGGGCCACAGCAGAAGCGUUCACGUUGCGGCCCCUGUCAGAUUCUGGUGAAUCUGCGAAUUCUGCUCU | 0.385
GGGGGCCACAGCAGAAGCGUUCACGUUGCGGCCCCUGUCAGAUUCUGGUCAAUCUGCGAAUUCUGCUGU | 0.272
GGGGGCCACAGCAGAAGCGUUCACGUUGCGGCCCCUGUCAGUUUCUGGUGAAUCUGCGAAUUCUGCUGU | 0.167
GGGGGCCACAGCAGAAGCGUUCACGUUGGGGCCCCUGUCAGAUUCUGGUGAAUCUGCGAAUUCUGCUGU | 0.114
GGGGGCCACAGCAGAAGCGUUCACGUUGUGGCCCCUGUCAGAUUCUGGUGAAUCUGCGAAUUCUGCUGU | 0.189
GGGGGCCACAGCAGAAGCGUUCACGUUGCGGCCCCCGUCAGAUUCUGGUGAAUCUGCGAAUUCUGCUGU | 0.201
GGGGGCCACAGCAGAAGCGUUCACGUUGCGGCCCCUGGCAGAUUCUGGUGAAUCUGCGAAUUCUGCUGU | 0.17

— the RNAGym collection of RNA variant scans (doi:10.7554/elife.80360)
